B1: Omi34 (antibody, V domains shown)
VH: QVQLVQSGAEVKKPGSSVKVSCKASGGTFSSYGIRWVRQAPGQGLEWMGGIIPVFGATNYAQKFQDRVTITADKSTATAYMELSSLKSDDTAVYFCARDALSASGWTGPFDSWGQGTLVTVSS
VL: QSVLTQPPSVSGAPGQRVTISCTGSSSNIGADYDVHWYQQLPGAAPKLLIYGNNNRPSGVPDRFSGSKSGTSASLAITGLQAEDEADYYCQSYDSSQNAFYVFGTGTKVTVL
B2: Omi25 (antibody, V domains shown)
VH: QVQLVESGGGLVQPGRSLRLSCAASGFTFDDYAMHWVRQVPGKGLEWVSGISWNSGSIVYADFVKGRFTIARDNAKNSLFLQMNSLRAEDTALYYCAKSTALRHQYYYGMDVWGQGTTVTVSS
VL: AIQMTQSPSSLSASVGDRVTITCRTSQTISSYLNWYQQKPGKAPKLLIYDASSLQSGVPSRFSGSGYGTDFTLTISSLQPEDFATYFCQQSYNTPYAFGQGTKVEIK
B3: Omi31 (antibody, V domains shown)
VH: EVQLVQSGAEVKKPGSSVKVSCKASGGTFSSYGISWVRQAPGLGLEWMGGVIPILSAKHYAQRFQGRVTITADKSTGTAYMELSSLRSEDTAVYYCARDILHHDDLWGRFYYDGMDVWGQGTTVTVSS
VL: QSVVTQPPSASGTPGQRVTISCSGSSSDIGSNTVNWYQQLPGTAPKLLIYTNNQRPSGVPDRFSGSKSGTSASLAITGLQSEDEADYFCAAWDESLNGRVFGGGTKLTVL
B4: Omi23 (antibody, V domains shown)
VH: QVQLQESGPGLVKSSQTLSLTCTVSGDSISRGGYYWSWIRQHPGKGLEWIGSIYYSGSTYYNPSLKSRFTISVDTSKNQFSLKLSSVTAADTAVYHCAREIGFLDYWGQGTLVTVSS
VL: AIQMTQSPSSLSASVGDRVTITCRASQAISNSLAWYQQKPGKAPKLLLYAASTLESGVPSRFSGSGSGTDFTLTISSLQPEDFATYFCQQYYSTPPRTFGQGTKVDIK
B5: Omi30 (antibody, V domains shown)
VH: EVQLVESGAEVKKPGSSVKVSCKASGGTFSRYAISWVRQAPGQGLEWMGGIIPIFDATNYAQKFHDRVTITADKSASTAYMELSSLRSDDTAVYYCARERTYCSGGTCYGGYFYYGMDVWGQGTTVTVSS
VL: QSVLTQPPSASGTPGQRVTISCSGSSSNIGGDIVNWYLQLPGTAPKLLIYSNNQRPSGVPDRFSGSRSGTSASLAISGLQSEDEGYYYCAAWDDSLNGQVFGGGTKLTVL
B6: Omi32 (antibody, V domains shown)
VH: EVQLVESGGGVVQPGRSLRLSCAASGFTFSNYGMHWVRQAPGKGLEWVAVYWYDGGNKFYADSVKGRFTISRDNSKNTLYLQMNSLRVEDTAVYYCARDTAPPDYWGQGTLVTVSS
VL: AIRMTQSPGTLSLSPGERATLSCRASQSISSSFLAWYQQKPGQAPRLLIYGASSRATGIPDRFSGSGSGTDFTLTISRLEPEDFAVYYCQQYGTSPRLTFGGGTKVDIK
B7: Omi20 (antibody, V domains shown)
VH: EVQLVESGGGLVQPGGSLRLSCEASEITVSSNYMNWVRQAPGKGLEWVSVLFAGGTTYYADSVKGRFTISRDNSKNTLYLQMNTLRIEDTAIYYCARDLVAYGVDVWGQGTTVTVSS
VL: AIQMTQSPSFLSASVGDRVTITCRASQGISGDLAWYQQKPGKAPKLLIYAASTLQSGVPSRFSGSGSGTEFTLTISSLQPEDFATYYCQHLNSYPLTFGGGTKVEIK
B8: Omi27 (antibody, V domains shown)
VH: EVQLLESGGGLVQPGGSLRLSCVASGLTVSSNYMSWVRQAPGKGLEWVSIIYPGGTTYYADSVKGRFTTSRDKSKNTLYLQMNSLRAEDTAVYYCARDLAVAGGMDVWGQGTTVTVSS
VL: EIVMTQSPSSLSASVGDRVTITCRASQGIGNDLGWYQQKPGKAPKVLIYAASNLQSGVPSRFSGSGSGTDFTLTISSLQPEDFATYYCLQDSNYPYTFGQGTKVEIK
B9: Omi29 (antibody, V domains shown)
VH: QVQLVESGGGLVQPGGSLRLSCAASGLIVSRNYMSWVRQAPGKGLEWVSLIYAGGSTFYSDSVKGRFTISRHSSENTLFLQMNSLRAEDTAVYYCARDLVHYGMDVWGQGTTVTVSS
VL: NFMLTQPASVSGSPGQSITISCTGTSSDVGGYNYVSWYQQHPGKAPKLMIYDVSNRPSGVSNRFSGSNSGNTASLTISGLQAEDEADYYCSSYTSGSTWVFGGGTKLTVL
B10: Omi28 (antibody, V domains shown)
VH: EVQLVESGGGLVQPGGSLRLSCAASGVIVSSNYMSWVRQAPGKGLQWVSVIYSGGSTFYADSVKGRFTISRDNSKNTLYLQMNSLRAEDTAVYYCARDLLEAGGTDYWGQGTLVTVSS
VL: DVVMTQSPGTLSLSPGERATLSCRASQFIGSSYLAWYQQKPGQAPRLLIYGASNRATGVPDRFSGSGSGTDFTLTISRLEPEDFAVYYCQQYGSAPGTFGQGTKVEIK
B11: Omi02 (antibody, V domains shown)
VH: EVQLVESGAEVKKPGSSVKVSCKASGGTFSSYAINWVRQAPGQGLEWMGGIIPIFRTPHYAQKFQGRVTITADESTGTAYMELSSLRSEDTAVYYCASPSCGGDCPQYLKSSKLDWYFDLWGRGTLVTVSS
VL: VIWMTQSPGTLSLSPGERATLSCRASQSVSSTYLAWYQQKPGQAPRLLIYGASSRATGIPDRFSGSGSGTDFTLTISRLEPEDFAVYYCQHYGSSPLTFGQGTRLEIK
B12: Omi26 (antibody, V domains shown)
VH: QVQLVQSGTEVKKPGASVKVSCKASDYTFTRFGIIWVRQAPGQGLEWMGQINPYNGNTDYAQKFQGRVTLTTDTSTNTAYMELRSLRSDDTAVYYCARSAGSPTGLDYWGQGTLVTVSS
VL: QSVVTQPPSVSEAPRQRVTISCSGSNSNIGNNAVNWYQQLPGKAPKLLVYYDDLLPSGVSDRFSGSKSGTSASLAISGLQSEDKADYYCAAWDDSLNALVFGGGTKLTVL
B13: Omi36 (antibody, V domains shown)
VH: EVQLVESGGGVVQPGGSLRLSCAASGIIVSANYMTWVRQAPGKGLEWVSVIYPGGSTFYADSVKGRFTISRDNSKNTLYLQMNSLRVEDSAVYYCARDLELAGFNDYWGQGTLVTVSS
VL: DIVMTQSPGTLSLSPGERATLSCRTSQSVSSNYLAWYQQKPGQAPRLLIYGASSRATGIPDRFSGSGSGTDFTLTISRLEPEDFAVYYCQQFGSSPRYTFGQGTKVEIK
B14: Omi35 (antibody, V domains shown)
VH: QVQLVESGGGLVQPGRSLRLSCAASGFTFDDYAMHWVRQAPGKGLEWVSGSTWNSGTIDYADSVKGRFTISRDNAKNSLYLQMNSLRAEDTALYYCAKDRFRKGCSSTGCYKENYGMDVWGQGTTVTVSS
VL: QSVVTQPPSVSVAPGQTARITCGGTNIGSKSVHWYQQKPGQAPVLVVYDDSDRPSGIPERFSGSNSGNTATLTITWVEAGDEADYYCQVWDSSSDNVLFGGGTKLTVL
B15: Omi38 (antibody, V domains shown)
VH: QVQLVESGAEVKKPGSSVKVSCKASGGNFNMYTISWVRQAPGRGLEWMGRFIPIANKANYAQNFPGRVTITADKSTSTVYMELRSLTSDDTAVYYCARSGSYDAFDVWGQGTMVTVSS
VL: AIRMTQSPSTLSASVGDRVTITCRASQTINSWLAWYQQKPGKAPKLLIYDASNLESGVPSRFSGSGSGTEFTLTISSLQPDDFATYYCQQYESYSPITFGQGTRLEIK
B16: Omi24 (antibody, V domains shown)
VH: QVQLVESGAEVKKPGSSVKVSCKASGGTFSSHGVIWVRQAPGQGLEWMGGIIPIFPTANYAQKFQGRVTITADKPSNTAYMELSSLRSEDTAVYYCARARGEHDSVWGSFHYYFDYWGQGTLVTVSS
VL: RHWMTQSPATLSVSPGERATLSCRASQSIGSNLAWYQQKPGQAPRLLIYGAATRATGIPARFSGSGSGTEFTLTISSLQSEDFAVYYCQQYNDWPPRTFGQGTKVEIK

The results in this text go back to patent US20250154231A1 (RQBIO COVID, published 2025).

In the assay the target is SARS-CoV-1 S protein (SARS-CoV-1, UniProt P59594 14-1195). The assay is described as follows: ELISA.
Take B1: the binding result is recorded as “no binding”.

For the molecule B2, the binding result was “no binding”.

Take B3: the binding result is “no binding”.

B4: the binding result is reported as “no binding”.

Regarding B5, the binding result is given as “no binding”.

As to B6, the binding result is listed as “no binding”.

Turning to B7, the binding result was “no binding”.

Regarding B8, the binding result was “no binding”.

Regarding B9, the binding result was “no binding”.

In the case of B10, the binding result is given as “no binding”.

As to B11, the binding result is reported as “no binding”.

Take B12: the binding result is recorded as “no binding”.

With B13, the binding result is on record as “no binding”.

Consider B14, for which the binding result is on record as “no binding”.

As for B15, the binding result is on record as “no binding”.

B16: the binding result was “no binding”.
